Target: EGFP-T/C1 (EGFP-E-III-F-172)

B1: protease type X (Sigma, St. Louis) (protein)
chain: ITGTSTVGVGRGVLGDQKNINTTYSTYYYLQDNTRGNGIFTYDAKYRTTLPGSLWADADNQFFASYDAPAVDAHYYAGVTYDYYKNVHNRLSYDGNNAAIRSSVHYSQGYNNAFWNGSQMVYGDGDGQTFIPLSGGIDVVAHELTHAVTDYTAGLIYQNESGAINEAISDIFGTLVEFYANKNPDWEIGEDVYTPGISGDSLRSMSDPAKYGDPDHYSKRYTGTQDNGGVHINSGIINKAAYLISQGGTHYGVSVVGIGRDKLGKIFYRALTQYLTPTSNFSQLRAAAVQSATDLYGSTSQEVASVKQAFDAVGVK
With B1 as the protein, how does the “optical change / cleavage (absorbance at 397 nm, SDS-PAGE, MALDI-MS)” value read?
The value was “this sensor was not cleaved by thrombin and protease type X”.

From patent US20150010920
